Results from the supplement of paper PMC9170038.

Test system: MS2 coat protein
Assay: apparent KD of MS2 coat protein; designed switch direction (-1 OFF switch, 1 ON switch): 1; higher = weaker reporter binding
Procedure, shortened: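 Designed RNA switches were transcribed on Illumina chips by stalled E. coli RNA polymerase and titrated with SNAP-549-labelled MS2 coat protein from 0.7 or 1.5 nM, doubling to 3 µM. Step length ran from 0.8–1.5 h at the lowest concentration to 10–20 min at the highest. The apparent KD is the median over clusters for each design, from curve-fitted normalised cluster fluorescence.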

[1] = input ligand: microRNA oligo, concentration not stated
[2] = Eterna round: R95, input ligand: FMN 200 uM
[3] = Eterna round: R95, input ligand: microRNA oligo, concentration not stated
[4] = Eterna round: R95, input ligand: none

CCCUGAGGCAGCCUACAGGGACAUGAGGAUCACCCAUGUACACAGGAUAUCGAGGGCUCCGCCCUCGAGAAGGGUGAUCAGACU [Redied] (Eterna round: R96, puzzle: Same State NG 3)
apparent KD of MS2 coat protein (input ligand: FMN 200 uM): 321 nM | apparent KD of MS2 coat protein [1]: 161 nM | apparent KD of MS2 coat protein (input ligand: none): 97.4 nM

UGUUGUAAUACAGGAUAUAUAUUAUUUUUAUUUAUAGAAGGGUAAUCACAUGAGGAUCACCCAUGUAUAUACGAGGAAGAAGAG [JMF's solution 3] (Eterna round: R96, puzzle: Same State NG 1)
apparent KD of MS2 coat protein [1]: 139 nM

AUAAAACAUGAGGAUCACCCAUGUCAACAAAGUCGAGGAUAUGGGCAAAUAAUAUAAGAACCAGAAGGCGAAUAAU [salish99_ss1_r3_022] (puzzle: Same State 1)
apparent KD of MS2 coat protein [2]: 36.6 nM | apparent KD of MS2 coat protein [3]: 207 nM | apparent KD of MS2 coat protein [4]: 191 nM

UUCUUACAUGAGGAUCACCCAUGUGUUGUCGUGGGAGGAUAUCCUUGUUCGGUGGCGUUGGGAGAAGGCCUAUGUU [× ×•×ª×• ×ž×“×™× ×” × ×—×ª-20] (puzzle: Same State 1)
apparent KD of MS2 coat protein [3]: 40.4 nM

AAUCCUGUCACAGGAUAUCCAAGGUAAACCCUCGGAGAAGGGUGAUAGUCUAACAAACACACACAUGAGGAUCACCCAUGUUAA [Usxeus] (Eterna round: R96, puzzle: Same State NG 1)
apparent KD of MS2 coat protein (input ligand: FMN 200 uM): 52.4 nM | apparent KD of MS2 coat protein [1]: 40.1 nM | apparent KD of MS2 coat protein (input ligand: none): 83.6 nM

GAGGGACAGACCAACAUGAGGAUCACCCAUGUCCUCGCAGGUCAGGAUAUCCGUCCAACAGGCAAGGAGAAGGGACGGUGAACC (Eterna round: R96, puzzle: Same State NG 3)
apparent KD of MS2 coat protein (input ligand: FMN 200 uM): 522 nM | apparent KD of MS2 coat protein [1]: 1200 nM | apparent KD of MS2 coat protein (input ligand: none): 724 nM

CUCAACAACACAGGAUAUCCAGGGAAAAGCCCUGGAGAAGGGUGACCAACAUGAGGAUCACCCAUGUGACGGCUAAACCGUCUG [Inususisre] (Eterna round: R96, puzzle: Same State NG 1)
apparent KD of MS2 coat protein (input ligand: FMN 200 uM): 319 nM | apparent KD of MS2 coat protein [1]: 509 nM | apparent KD of MS2 coat protein (input ligand: none): 60.7 nM

GCUCGUAUCACAACCGACAUGAGGAUCACCCAUGUAUGUUGGUAGGAUAUCUAUAUUAAGGAUAUAGAGAAGGGCCGAACGAGC [SameState NG3 #13] (Eterna round: R96, puzzle: Same State NG 3)
apparent KD of MS2 coat protein (input ligand: FMN 200 uM): 14.6 nM | apparent KD of MS2 coat protein [1]: 10.4 nM | apparent KD of MS2 coat protein (input ligand: none): 18.7 nM

GGUAGGUUACUACCAAACAUGAGGAUCACCCAUGUAAGUGGGAAGGAUAUGGUACCUAAAAGGUACCAGAAGGUCCAUAUAGUU [Mat - Same State NG 3 - JL Mod - D99] (Eterna round: R96, puzzle: Same State NG 3)
apparent KD of MS2 coat protein (input ligand: FMN 200 uM): 202 nM | apparent KD of MS2 coat protein [1]: 228 nM | apparent KD of MS2 coat protein (input ligand: none): 711 nM

CUGAGCAAUCAAGGAUAUCACGUCGUUUAGACGUGAGAAGGUGAUCAUAACAUGAGGAUCACCCAUGUAUUACAUGAAGCUCAG [SSNG1/1-A3] (Eterna round: R96, puzzle: Same State NG 1)
apparent KD of MS2 coat protein (input ligand: FMN 200 uM): 767 nM | apparent KD of MS2 coat protein [1]: 363 nM | apparent KD of MS2 coat protein (input ligand: none): 919 nM

GCCGCGUUUCGCGCCUACAUGAGGAUCACCCAUGUUUGUAGGCAGGAUAUCGUCCGCUCUGCGGGCGAGAAGGGCUGUUGUGGC [salish99_SSNG3_R04_022] (Eterna round: R96, puzzle: Same State NG 3)
apparent KD of MS2 coat protein (input ligand: FMN 200 uM): 41.2 nM | apparent KD of MS2 coat protein [1]: 36.7 nM | apparent KD of MS2 coat protein (input ligand: none): 51.5 nM

GGAAUAUUUACAGGAUAUGAUUUGUAAAUUCGAUCAGAAGGGUAGAUGUCUUACACGACUUGUUACAUGAGGAUCACCCAUGUU [SameState NG1 #9] (Eterna round: R96, puzzle: Same State NG 1)
apparent KD of MS2 coat protein (input ligand: FMN 200 uM): 41.6 nM | apparent KD of MS2 coat protein [1]: 48.8 nM | apparent KD of MS2 coat protein (input ligand: none): 67.3 nM

GCAAAGGCGGUAGGAUAUCUAGGAUAUGGGAAAGACUAAGUCUGUAGGUCACCUAACCCAGAAGGAGAGAAGGACACCGAAAGG [pwkr ssNG2 2FMN + F9.25] (Eterna round: R96, puzzle: Same State NG 2)
apparent KD of MS2 coat protein (input ligand: FMN 200 uM): 617 nM | apparent KD of MS2 coat protein [1]: 9.18 nM | apparent KD of MS2 coat protein (input ligand: none): 73.7 nM

GUUACAUGAGGAUCACCCAUGUAUGUGUGGGAGUAAGUGUCUUAGGAUAUCUAUCAUUGAAUUUAAGAGAAGGAAGAUUGUUGU [JMF's solution 92] (Eterna round: R96, puzzle: Same State NG 3)
apparent KD of MS2 coat protein [1]: 81.3 nM

GCUACAUGAGGAUCACCCAUGUGUGCGUGGGAGUGAGUGGCUUAGGAUAUCUAUGAUUUUAGUUGAGAGAAGGAGGAUUGCUGU [SS-NG3-LRO10] (Eterna round: R96, puzzle: Same State NG 3)
apparent KD of MS2 coat protein (input ligand: FMN 200 uM): 193 nM | apparent KD of MS2 coat protein [1]: 140 nM | apparent KD of MS2 coat protein (input ligand: none): 175 nM

AGUCCAGCCUGAGCUGGACAAAAGCAUGUACAUGAGGAUCACCCAUGUCAUGUAUAAGCUUUUUGCUCGUCUUAAAA [Zipper 46 - 10] (puzzle: Sensor for hsa-mir-208a)
apparent KD of MS2 coat protein [2]: 18.9 nM | apparent KD of MS2 coat protein [3]: 9.63 nM | apparent KD of MS2 coat protein [4]: 20.1 nM

GGAGGAUGAGCGUAGGAUAUAGGAGGAGUGACAUGAGGAUCACCCAUGUAGUAGGAGGGAAAGGGCUAGAAGGACGAGGAAGAGG [JR_SS2_Sub071] (puzzle: Same State 2)
apparent KD of MS2 coat protein [2]: 56.1 nM | apparent KD of MS2 coat protein [3]: 51.2 nM | apparent KD of MS2 coat protein [4]: 70.2 nM

GCAUCACAUGAGGAUCACCCAUGUCUUCGGAGCCGAGGAUAUGGUCACUGUAAACAGUGGCCAGAAGGCGGGAUGC [SS1 - Son of Teenbexe v1] (puzzle: Same State 1)
apparent KD of MS2 coat protein [2]: 30.2 nM | apparent KD of MS2 coat protein [3]: 41.5 nM | apparent KD of MS2 coat protein [4]: 61.3 nM

CAGCGCUGUCGAGAGGAUAUGUGGUGAUGGACAUGAGGAUCACCCAUGUUAGCGACAGUAUCACGGCAGAAGGCUCUACCGCUGC [Soteed Omei mod 31] (puzzle: Same State 2)
apparent KD of MS2 coat protein [2]: 56.1 nM | apparent KD of MS2 coat protein [3]: 38.1 nM | apparent KD of MS2 coat protein [4]: 44 nM

AAUACAAAUAGUCAGGAUAUCAAAAAUAAGACAUGAGGAUCACCCAUGUAAUAAGUAAAAGUAAAUGAGAAGGGACAGGGUGAAA [JR_SS002_Sub401] (Eterna round: R96, puzzle: Same State 2)
apparent KD of MS2 coat protein [1]: 197 nM

GCUCGACGUGUUGUCUACAUGAGGAUCACCCAUGUAGGUGCGGAGGAUAUCUACGUGUUUUAUGUAGAGAAGGUCGUGUCGAGC [SameState NG3 #88] (Eterna round: R96, puzzle: Same State NG 3)
apparent KD of MS2 coat protein (input ligand: FMN 200 uM): 15.1 nM | apparent KD of MS2 coat protein [1]: 15.5 nM | apparent KD of MS2 coat protein (input ligand: none): 17.2 nM

GGUGGGUUACUACCCACACAUGAGGAUCACCCAUGUUUUGGGAAGGAUAUGGUACCUAUUUGGUACCAGAAGGUCCUGUUGGUG [SS-NG3-LRO14] (Eterna round: R96, puzzle: Same State NG 3)
apparent KD of MS2 coat protein (input ligand: FMN 200 uM): 702 nM | apparent KD of MS2 coat protein [1]: 445 nM | apparent KD of MS2 coat protein (input ligand: none): 1020 nM

GGAGCCGGCACCGAGGAUAUUUAUAUUAAAACAUGAGGAUCACCCAUGUAGGCCAGAAGGCCUUGGGAGAAGGCGGAUCGGCUCG [Xeonanis - 5] (puzzle: Same State 2)
apparent KD of MS2 coat protein [2]: 16.4 nM | apparent KD of MS2 coat protein [3]: 75.7 nM | apparent KD of MS2 coat protein [4]: 79.6 nM

UUAUCUCUUACAUGAGGAUCACCCAUGUUUUUAUGUCUUAGACAGGAUAUAGUAGUCUCGUUUUACUAGAAGGGUCUUUUUAUU [JR_SSNG3_Sub019] (Eterna round: R96, puzzle: Same State NG 3)
apparent KD of MS2 coat protein (input ligand: FMN 200 uM): 28.9 nM | apparent KD of MS2 coat protein [1]: 39.8 nM | apparent KD of MS2 coat protein (input ligand: none): 51.4 nM
